Measurements published in patent US20130280271A1 (INSTITUTE FOR CANCER RESEARCH, published 2013).

Biological target: the molecule itself
Experiment: static light scattering; self-association
Experimental: Light scattering analysis. Measurements were made with a Protein Solutions DynaPro Temperature Controlled Microsampler. Samples were adjusted to the desired concentration and particulates removed by filtration through a 0.2μ microcon device, and subsequent clearing by brief centrifugation at 14,000×g and 4° C. The protein concentration was then determined directly using absorbance at 280 nm and a calculated molar extinction coefficient, taking the average of 3 readings. All samples were analyzed under conditions of 10° C. in a buffer of 25 mM BisTris pH 6.1, 500 mM NaCl, 1 mM DTT, 0.1 mM EDTA, 5% glycerol. The molecular mass (MW I) was calculated from the static light scattering measurements (at least 300 acquisitions per protein sample) using the DynaPro software.

B1: ASV IN(1-207) (enzyme)
chain: PLREAKDLHTALHIGPRALSKACNISMQQAREVVQTCPHCNSAPALEAGVNPRGLGPLQIWQTDFTLEPRMAPRSWLAVTVDTASSAIVVTQHGRVTSVAAQHHWATAIAVLGRPKAIKTDNGSCFTSKSTREWLARWGIAHTTGIPGNSQGQAMVERANRLLKDKIRVLAEGDGFMKRIPTSKQGELLAKAMYALNHFERGENTKT
notes: also called IN fragment that lacks the CTD
Question: Does B1 bind?
Answer: no binding (tested: 1.5 mg/ml)
